Data published in article PMC13208732 (2026).

What was measured:
[1] = biological target: T1, recombinant human placental growth factor 2 (PlGF-2) (human, UniProt P49763-3 19-170); experiment: ELISA; competition with biotinylated VEGFR1, no heparin
T1 chain: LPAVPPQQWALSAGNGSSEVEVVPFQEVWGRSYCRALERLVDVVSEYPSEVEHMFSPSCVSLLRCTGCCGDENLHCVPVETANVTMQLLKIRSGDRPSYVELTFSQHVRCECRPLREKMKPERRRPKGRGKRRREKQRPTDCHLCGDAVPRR

[2] = biological target: T1, recombinant human placental growth …; experiment: ELISA; competition with biotinylated VEGFR1, 1 ug/mL heparin

B1: VEGFR1 domains 1 to 6 fused to a C-terminal Fc, biotinylated (Fc fusion)
chain: SKLKDPELSLKGTQHIMQAGQTLHLQCRGEAAHKWSLPEMVSKESERLSITKSACGRNGKQFCSTLTLNTAQANHTGFYSCKYLAVPTSKKKETESAIYIFISDTGRPFVEMYSEIPEIIHMTEGRELVIPCRVTSPNITVTLKKFPLDTLIPDGKRIIWDSRKGFIISNATYKEIGLLTCEATVNGHLYKTNYLTHRQTNTIIDVQISTPRPVKLLRGHTLVLNCTATTPLNTRVQMTWSYPDEKNKRASVRRRIDQSNSHANIFYSVLTIDKMQNKDKGLYTCRVRSGPSFKSVNTSVHIYDKAFITVKHRKQQVLETVAGKRSYRLSMKVKAFPSPEVVWLKDGLPATEKSARYLTRGYSLIIKDVTEEDAGNYTILLSIKQSNVFKNLTATLIVNVKPQIYEKAVSSFPDPALYPLGSRQILTCTAYGIPQPTIKWFWHPCNHNHSEARCDFCSNNEESFILDADSNMGNRIESITQRMAIIEGKNKMASTLVVADSRISGIYICIASNKVGTVGRNISFYITDVPNGFHVNLEKMPTEGEDLKLSCTVNKFLYRDVTWILLRTVNNRTMHYSISKQKMAITKEHSITLNLTIMNVSLQDSGTYACRARNVYTGEEILQKKEIT
modifications: biotin (EZ-Link Sulfo-NHS-Biotinylation Kit)
IC50 [1]: 142 nM
IC50 [2]: 75.1 nM
